Patent US20240092919A1

B1: T017000676 (bispecific antibody)
chain: DVQLVESGGGLVQAGGSLRLSCAASGITSKINDMGWYRQTPGNYREWVASITATGTTNYRDSVKGRFTISRDNAKSTVYLQMNSLKPEDTTVYYCNTFPPISNFWGQGTLVTVSSGGGGSGGGGSGGGGSGGGGSGGGGSGGGGSGGGGSEVQLVESGGGLVQAGGPLRLSCAASGRTFSSYVMGWFRQAPGKEREFVAAIYWSNGKTQYTDSVKGRFTISGDNAKNTVYLQMNSLNPEDTAVYYCVADKDETGFRTLPIAYDYWGQGTLVTVSSGGGGSGGGGSGGGGSGGGGSGGGGSGGGGSGGGGSEVQLVESGGGVVQPGGSLRLSCVASGYVHKINFYGWYRQAPGKEREKVAHISIGDQTDYADSAKGRFTISRDESKNTVYLQMNSLRPEDTALYYCRALSRIWPYDYWGQGTLVTVSSA
B2: T017000677 (bispecific antibody)
chain: DVQLVESGGGLVQAGGPLRLSCAASGRTFSSYVMGWFRQAPGKEREFVAAIYWSNGKTQYTDSVKGRFTISGDNAKNTVYLQMNSLNPEDTAVYYCVADKDETGFRTLPIAYDYWGQGTLVTVSSGGGGSGGGGSGGGGSGGGGSGGGGSGGGGSGGGGSEVQLVESGGGVVQPGGSLRLSCVASGYVHKINFYGWYRQAPGKEREKVAHISIGDQTDYADSAKGRFTISRDESKNTVYLQMNSLRPEDTALYYCRALSRIWPYDYWGQGTLVTVSSGGGGSGGGGSGGGGSGGGGSGGGGSGGGGSGGGGSEVQLVESGGGLVQAGGSLRLSCAASGITSKINDMGWYRQTPGNYREWVASITATGTTNYRDSVKGRFTISRDNAKSTVYLQMNSLKPEDTTVYYCNTFPPISNFWGQGTLVTVSSA

Assays:
[1] = molecular target: Cynomolgus T cell receptor on cynomolgus primary T cells (cynomolgus monkey); assay: cell-based or functional assay
[2] = molecular target: Human T cell receptor on human primary T cells (human) (UniProt P01848); assay: cell-based or functional assay
Human T cell receptor on human primary T cells (human), sequence (P01848 whole entry, chain 1 of 2): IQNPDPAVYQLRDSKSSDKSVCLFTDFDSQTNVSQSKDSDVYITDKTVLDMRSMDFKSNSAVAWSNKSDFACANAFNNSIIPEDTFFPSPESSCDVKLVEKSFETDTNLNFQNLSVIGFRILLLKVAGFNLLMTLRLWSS
Human T cell receptor on human primary T cells (human), sequence (P01850 whole entry, chain 2 of 2, further chain): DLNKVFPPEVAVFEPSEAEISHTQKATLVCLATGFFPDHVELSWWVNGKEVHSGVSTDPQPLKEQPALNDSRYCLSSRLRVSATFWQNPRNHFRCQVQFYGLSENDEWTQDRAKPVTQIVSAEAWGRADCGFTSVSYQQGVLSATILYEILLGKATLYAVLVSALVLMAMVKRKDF

Row | Binder | % lysis, KG-1a, Cynomolgus T cell mediated killing [1] | % lysis, MOLM-13, Cynomolgus T cell mediated killing [1] | Average EC50 (M), KG-1a, Cynomolgus T cell mediated killing [1] | Average EC50 (M), MOLM-13, Cynomolgus T cell mediated killing [1] | % lysis, KG-1a, Human T cell mediated killing [2] | % lysis, MOLM-13, Human T cell mediated killing [2] | Average EC50 (M), KG-1a, Human T cell mediated killing [2] | Average EC50 (M), MOLM-13, Human T cell mediated killing [2] | IC50 (M), xCELLigence cell killing, Human T cell mediated killing, E:T 15:1 [2]
1 | B1 | 28% | 26% | 1.4e-11 M | 2e-11 M | 41% | 25% | 8.2e-11 M | 2.3e-11 M | 1.1e-10 M
2 | B2 | – | 54% | – | 5.1e-12 M | 65% | 20% | 1.5e-11 M | 1.2e-11 M | –
